# B1: Myc-tagged PRL: recombinant human PRL with myc-tag expressed in Drosophila S2 cells (protein)
# chain: LPICPGGAARCQVTLRDLFDRAVVLSHYIHNLSSEMFSEFDKRYTHGRGFITKAINSCHTSSLATPEDKEQAQQMNQKDFLSLIVSILRSWNEPLYHLVTEVRGMQEAPEAILSKAVEIEEQTKRLLEGMELIVSQVHPETKENEIYPVWSGLPSLQMADEESRLSAYYNLLHCLRRDSHKIDNYLKLLKCRIIHNNNC
# modifications: left off: small tags and cut ends
# notes: recombinant human PRL with myc-tag expressed in Drosophila S2 cells
# B2: PRL: human prolactin, pituitary isolated or recombinant (protein)
# chain: B1 chain
# modifications: left off: small tags and cut ends
# notes: human prolactin, pituitary isolated or recombinant
# System: Nb2 cells
# Test: Nb2 cell proliferation (3H-thymidine) to assess CypB modulation of somatolactogenic action
# Type: cell-based, rat
# Procedure: The effect of exogenous CypB on PRL-driven proliferation was examined with the rat Nb2 T-cell and the human T47D breast cancer line. […] This dose-dependent biphasic effect was most prominent at physiologic concentrations (5-10 mM) of CypB and PRL (50 pM) found in human serum. […] To determine the effect of CypB on cellular growth driven by the larger family of cytokines, to which PRL belongs, proliferation driven by interleukin-2 (IL-2), IL-3 and GH was examined.
# Nb2-cells (5×10^4; PRL-dependent, rat T-lymphoma) were plated in each well of 96 well plates in a defined DMEM-serum free medium (0.1 mM 2-mercaptoethanol, 1% penicillin/streptomycin, and 1% ITS+(Calbiochem)). Cells were rested for 24 hours at 37° C. in this defined medium in the absence of PRL before the addition of 5-500 pM PRL (either as human pituitary isolated PRL, National Hormone and Pituitary Program, NIDDK; recombinant human PRL from E. coli, Genzyme; or recombinant human PRL from Drosophila S2 cells) alone or premixed with 1-2000 fold excess of purified CypB. Parallel studies were performed using human pituitary-derived GH (National Hormone and Pituitary Program, NIDDK). Cultures were incubated for 48 hours at 37° C. and proliferation was evaluated by the addition of 0.5 μCi of ^3H-thymidine for four hours followed by harvesting and scintillography. […]
Molecule,bioactivity in Nb2 bioassays (protein secreted by Drosophila S2 cells),PRL concentration at which the sigmoid Nb2 growth curve plateaus (Nb2 cells stimulated with PRL alone)
B1,functionally bioactive,
B2,,approximately 2 ng PRL/ml
